# B1: P1D1 scFv (scFv)
# scFv: QVQLVQSGAEVKKPGESLKISCKGSGYSFTSYWIGWVRQMPGKGLEWMGIIYPGDSDTRYSPSFQGQVTISADKSISTAYLQWSSLKASDTAMYYCARRSVAGLDYWGQGTLVTVSSGSASAPTLGQGGGGGSGGGGSGGGGSKTVVTQPPSASGTPGQRVTISCSGSSSNIGSKYVYWYQQLPGTAPRLLIYRNNQRPSGVPDRFSGSKSGTSASLAISGLRSEDESDYYCASWDDRLKGYAFGTGTKVTVL
# B2: P3B9 scFv (scFv)
# scFv: QIQLVQSGAEVKKPGESLKISCKGSGYSFTSYWIGWVRQMPGKGLEWMGIIYPGDSDTRYSPSFQGQVTISADKSISTAYLQWSSLKASDTAMYYCARRTPRGMDVWGQGTTVTVSSGSASAPTLGQGGGGGSGGGGSGGGGSQAVLTQPPSASGTPGQRVTISCSGSSSNIGSNYVYWYQQLPGTAPKLLIYRNNQRPSGVPDRFSGSKSGTSASLAISGLRSEDEADYYCAAWDDSLSGWVFGGGTKLTVL
# B3: P1G2 scFv (scFv)
# scFv: QVQLQQSGAEVKKPGSSVKVSCKASGGTFSSYAISWVRQAPGQGLEWMGRIIPILGIANYAQKFQGRVTITADKSTSTAYMELSSLRSEDTAVYYCAVNYYDSSGYYSDYWGQGTLVTVSSGSASAPTLGQGGGGGSGGGGSGGGGSSYELTQPPSASGSPGQSVTISCTGTSSDVGGYNYVSWYQQHPGKAPRLMIYGVSQRPSGVPDRFSGSKSGNTASLTVSGLQAEDEADYYCSSYANNNYVFGTGTKVTVL
# B4: P2E5 scFv (scFv)
# scFv: QVTLKESGGGLVQPGGSLRLSCAASGFTFSNSYMTWVRQAPGMGLEWVASMKPDGSVKHYVDSVKGRFTISRDNTKNSLDLQMNSLRAEDTAVYYCSSYDTRWGWFDPWGEGTLVTVSSGSASAPTLGQGGGGGSGGGGSGGGGSQTVVTQEPSFSVSPGGTVTLTCGLNSGSVSTSYFPSWYQQTPGQAPRTLIYNTNTRSSGVPDRFSGSILGNKAALTITGAQADDESDYYCLLYMDSGPHWVFGGGTKLTVL
# B5: P2E3 scFv (scFv)
# scFv: QVQLVQSGAEVKKPGESLKISCKGSGYSFTSYWIGWVRQMPGKGLEWMGIIYPGDSDTRYSPSFQGQVTISADKSISTAYLQWSSLKASDTAMYYCARRSREGFDPWGQGTLVTVSSGSASAPTLGQGGGGGSGGGGSGGGGSQAVLTQPSSASGTPGQRVTMSCSGAASNIGKNFVYWYQQLPGRAPRLLISRNIQRPSEVPDRFSGSKSGTSASLAISGLQSEDEADYYCAAWDDSLNGFVFGTGTAVTVL
# B6: P7F10 full-length IgG1 antibody (antibody, V domains shown)
# VH: QVQLQQSGGGLVQPGGSLRLSCAASGFTFSSYPMSWVRQAPGKGLEWVSVISGSGGSTFYADSVKGRFTISRDNSKNTLYLQVNSLRAEDTAVYYCAKDGRTLSGMDVWGQGTTVTVSS
# VL: QPVLTQPPSASGTPGQRVTISCSGSSSNIGSNPVNWYQQLPGTAPKLLIYNNNQRPSGVPDRFSGSKSGTSGSLAISGLQSEDEAHYYCAAWDVSLKEVFGGGTKVTVL
# B7: P9A12 full-length IgG1 antibody (antibody, V domains shown)
# VH: QVTLKESGGGLVQPGGSLRLSCAASGFTFSSYAMSWVRQAPGKGLEWVSAISGSGGSTYYADSVKGRFTISRDNSKNTLYLQMNSLRAEDTAVYYCARGAGIDAFDIWGQGTMVTVSS
# VL: QSALTQPASVSGSPGQSITISCTGTSSDVGAYNYVTWYQQYPGKAPKLMIYDVSERPSGVSNRFSGSKSGNTASLTISGLQAEDEADYYCSSFTSSISWVFGGGTKLTVL
# Biological target: T1, B7-H3 antigen H4M (human 4Ig B7-H3 amino acids 27-461 with N-terminal 10 His tag and C-terminal Myc tag) (human, UniProt Q5ZPR3 27-461, Biotinylated in the phage ELISA (labeling amount approximately 2.5, sites not stated); not biotinylated in the scFv protein ELISA)
# T1 construct: Expressed in Expi293; also called biotinylated B7-H3 antigen H4M; not shown: any linker between the tags and the B7-H3 part is not described
# T1 sequence: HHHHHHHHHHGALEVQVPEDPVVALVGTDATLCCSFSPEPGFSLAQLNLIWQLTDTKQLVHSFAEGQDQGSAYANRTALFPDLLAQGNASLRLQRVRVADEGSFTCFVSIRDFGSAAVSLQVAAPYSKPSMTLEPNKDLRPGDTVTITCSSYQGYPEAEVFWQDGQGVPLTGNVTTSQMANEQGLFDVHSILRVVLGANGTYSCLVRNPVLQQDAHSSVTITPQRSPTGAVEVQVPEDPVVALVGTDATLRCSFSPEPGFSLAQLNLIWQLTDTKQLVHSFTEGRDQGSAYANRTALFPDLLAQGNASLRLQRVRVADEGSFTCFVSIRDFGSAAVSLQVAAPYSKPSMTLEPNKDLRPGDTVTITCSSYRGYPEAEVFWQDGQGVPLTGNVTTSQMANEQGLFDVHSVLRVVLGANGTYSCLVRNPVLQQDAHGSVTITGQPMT
# Assay: scFv protein ELISA on coated H4M
# Experimental: ELISA screening of scFv protein: B7-H3 antigen H4M was taken and dissolved at room temperature, then diluted with coating buffer to 2 ng/ml, and aliquoted into a hydrophobic enzyme-labeled plate at 100 μL/well, while 100 μL coating buffer only were pipetted into another 3 wells as a blank control, incubated overnight at 2-8° C. 100 μL of scfv protein sample was pipetted into each well, then the plate was placed into the microplate shaker, incubating for 1 hour at 37° C. and 600 rpm. After discarding the liquid, the plate was washed for 3 times with washing buffer. Then diluted enzyme-linked antibody was aliquoted into each well at 100 μL/well, placed into the microplate shaker, incubating at 37° C., 600 rpm for 1 hour. After discarding the liquid, the plate was washed for 3 times. Then TMB chromogenic solution was aliquoted in at 100 μL/well and incubated for 15 minutes, then 1 mol/L H₂SO₄ stop solution was aliquoted at 100 μL/well to stop the reaction. A microplate reader was used to measure the absorbance at 450 nm with a wavelength of 650 nm as the reference wavelength.
row,Binder,ELISA signal value of protein scFv [absorbance 450 nm]
1,B1,2.97
2,B2,3.39
3,B3,0.54
4,B4,0.84
5,B5,3.58

# Biological target: T2, IgV domain of B7-H3 (human, UniProt Q5ZPR3 30-130)
# T2 sequence: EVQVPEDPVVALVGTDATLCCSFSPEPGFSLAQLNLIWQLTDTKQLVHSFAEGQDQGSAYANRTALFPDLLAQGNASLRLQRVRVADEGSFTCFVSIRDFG
# Assay: ELISA on coated antigen, IgG1 antibody
# Experimental: Protein binding: 100 μL of antigen B7-H3 (R&D) at 20 ng/ml was coated onto microplate, incubated at 2-8° C. overnight. Subsequently, 100 μL of the prepared full-length IgG1 antibody described above was added with a total of 8 concentrations started from 2000 ng/ml and serially diluted with 3-fold, incubating at 37° C., 600 rpm for 1 hour. After the plate was washed for three times, Goat anti human IgG (Fc)-HRP enzyme-linked antibody was added and the plate was shook at 37° C. and 600 rpm for 1 hour. After the plate was washed for 4 times, TMB chromogenic solution was aliquoted in and incubated for 10 minutes, then 1 mol/L […] stop solution at 100 μL/well was aliquoted to stop the reaction and the absorbance was measured.
row,Binder,ELISA signal value [elisasignalvalue]
1,B6,0.6 to 1.5
2,B7,0.3 to 0.5

# Biological target: T1, B7-H3 antigen H4M (human 4Ig B7-H3 …)
# Assay: phage ELISA, scFv displayed on phage, biotinylated H4M captured on streptavidin
# Experimental: Phage ELISA screening: streptavidin with a concentration of 1 mg/ml was taken and dissolved at room temperature, after being mixed, it was diluted gradually with coating buffer to 5 μg/ml. 100 μL/well of which was then pipetted into each well in a 96-well plate, and 100 μL coating buffer only were pipetted into another 3 wells as a blank control, incubated overnight at 2-8° C. The biotinylated B7-H3 antigen H4M was taken and diluted with 0.5% BSA-PBST diluent to […], then 100 μL of which at a concentration of 20 ng/ml was pipetted into the streptavidin-coated wells, and placed into a microplate shaker. After shaking at 37° C. and 600 rpm for 1 hour, the liquid was discarded, the plate was washed for 3 times with washing buffer and pat dry. The positive phage obtained in the second or third round of panning was taken and dissolved at room temperature, after being mixed, it was diluted 500 times with the diluent. The diluted phage was aliquoted into the microtiter plate at an amount of 100 μL/well, and placed in a microplate shaker, incubating at 37° C. and 600 rpm for 1 hour. After discarding the liquid, the plate was washed for 3 times with washing buffer. Then 100 μL of diluted HRP/Anti-M137 enzyme-linked antibody was aliquoted into each well, placed into the microplate shaker, incubating at 37° C., 600 rpm for 1 hour. After discarding the liquid, the plate was washed for 3 times. Then TMB chromogenic solution was aliquoted in at 100 μL/well and incubated for color development for 15 minutes, then 1 mol/L H₂SO₄ stop solution was aliquoted at 100 μl/well to stop the reaction. A microplate reader was used to measure the absorbance at 450 nm with a wavelength of 650 nm as the reference wavelength.
row,Binder,ELISA signal value of Phage scFv [absorbance 450 nm]
1,B1,3.65
2,B2,3.09
3,B3,3.55
4,B4,0.74
5,B5,3.54

# From patent US20220017620A1 (SHANGHAI FUDAN ZHANGJIANG BIO PHARMACEUTICAL, published 2022)
